{"source": "the supplement of paper PMC9112550", "about": "“Optimization of the antimicrobial peptide Bac7 by deep mutational scanning” (BMC Biology, 2022);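 note: peptides expressed intracellularly from a pBAD plasmid library in pooled LB shake-flask culture, induced with 0.3% L-arabinose, DNA abundance read by NGS, three biological replicates, DESeq2 with apeglm shrinkage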"}
{"tested_on": "Escherichia coli TOP10", "assay": "shrunken log2 fold change of peptide-encoding DNA abundance (4.5 h post-induction vs induction); higher = less antimicrobial activity (less host growth inhibition)", "conditions": "time post-induction: 4.5 h; library: site-saturation at positions 5, 18, 19, 20"}
{"sequence": "RRIRFRPPRLPRPRPRPQKLPRP", "shrunken log2 fold change": -0.211}
{"sequence": "RRIRCRPPRLPRPRPRPPWWPRP", "shrunken log2 fold change": 2.01}
{"sequence": "RRIRYRPPRLPRPRPRPYVWPRP", "shrunken log2 fold change": -0.389}
{"sequence": "RRIRNRPPRLPRPRPRPIKTPRP", "shrunken log2 fold change": -0.0156}
{"sequence": "RRIRNRPPRLPRPRPRPNPIPRP", "shrunken log2 fold change": 0.0101}
{"sequence": "RRIRIRPPRLPRPRPRPPNMPRP", "shrunken log2 fold change": -0.422}
{"sequence": "RRIRQRPPRLPRPRPRPENIPRP", "shrunken log2 fold change": -0.0809}
{"sequence": "RRIRRRPPRLPRPRPRPDGSPRP", "shrunken log2 fold change": 0.0601}
{"sequence": "RRIRERPPRLPRPRPRPSRFPRP", "shrunken log2 fold change": 0.17}
{"sequence": "RRIRTRPPRLPRPRPRPYGSPRP", "shrunken log2 fold change": -0.154}
{"sequence": "RRIRMRPPRLPRPRPRPRAFPRP", "shrunken log2 fold change": 0.918}
{"sequence": "RRIRYRPPRLPRPRPRPDWAPRP", "shrunken log2 fold change": 0.0528}
{"sequence": "RRIRRRPPRLPRPRPRPKQDPRP", "shrunken log2 fold change": 0.38}
{"sequence": "RRIRARPPRLPRPRPRPHANPRP", "shrunken log2 fold change": -0.0153}
{"sequence": "RRIRYRPPRLPRPRPRPMYTPRP", "shrunken log2 fold change": -0.597}
{"sequence": "RRIRYRPPRLPRPRPRPGIDPRP", "shrunken log2 fold change": -0.16}
{"sequence": "RRIRTRPPRLPRPRPRPYLTPRP", "shrunken log2 fold change": -0.171}
{"sequence": "RRIRIRPPRLPRPRPRPWPWPRP", "shrunken log2 fold change": 0.0338}
{"sequence": "RRIRIRPPRLPRPRPRPQTIPRP", "shrunken log2 fold change": -0.337}
{"sequence": "RRIRYRPPRLPRPRPRPGGFPRP", "shrunken log2 fold change": -0.169}
{"sequence": "RRIRSRPPRLPRPRPRPFWKPRP", "shrunken log2 fold change": -0.125}
{"sequence": "RRIRPRPPRLPRPRPRPVNTPRP", "shrunken log2 fold change": -0.634}
{"sequence": "RRIRCRPPRLPRPRPRPRFTPRP", "shrunken log2 fold change": 0.066}
{"sequence": "RRIRSRPPRLPRPRPRPDEIPRP", "shrunken log2 fold change": 0.139}
{"sequence": "RRIRYRPPRLPRPRPRPYWEPRP", "shrunken log2 fold change": -0.0328}
{"sequence": "RRIRWRPPRLPRPRPRPCQIPRP", "shrunken log2 fold change": -0.0592}
{"sequence": "RRIRVRPPRLPRPRPRPHHAPRP", "shrunken log2 fold change": -0.0431}
{"sequence": "RRIRIRPPRLPRPRPRPMYIPRP", "shrunken log2 fold change": -0.0364}
{"sequence": "RRIRKRPPRLPRPRPRPPTMPRP", "shrunken log2 fold change": 0.412}
{"sequence": "RRIRVRPPRLPRPRPRPLQDPRP", "shrunken log2 fold change": -0.104}
{"sequence": "RRIRTRPPRLPRPRPRPVVPPRP", "shrunken log2 fold change": -0.314}
{"sequence": "RRIRARPPRLPRPRPRPITDPRP", "shrunken log2 fold change": -0.0703}
{"sequence": "RRIRIRPPRLPRPRPRPWFSPRP", "shrunken log2 fold change": -0.201}
{"sequence": "RRIRMRPPRLPRPRPRPYSEPRP", "shrunken log2 fold change": 0.171}
{"sequence": "RRIRWRPPRLPRPRPRPSLEPRP", "shrunken log2 fold change": 0.067}
{"sequence": "RRIRCRPPRLPRPRPRPVSSPRP", "shrunken log2 fold change": -0.0119}
{"sequence": "RRIRSRPPRLPRPRPRPERGPRP", "shrunken log2 fold change": -0.0603}
{"sequence": "RRIRLRPPRLPRPRPRPFTWPRP", "shrunken log2 fold change": -0.369}
{"sequence": "RRIRWRPPRLPRPRPRPANHPRP", "shrunken log2 fold change": -0.262}
{"sequence": "RRIRDRPPRLPRPRPRPPINPRP", "shrunken log2 fold change": -0.205}
{"sequence": "RRIRWRPPRLPRPRPRPSSFPRP", "shrunken log2 fold change": -0.00317}
{"sequence": "RRIRYRPPRLPRPRPRPLPAPRP", "shrunken log2 fold change": -0.165}
{"sequence": "RRIRYRPPRLPRPRPRPTLSPRP", "shrunken log2 fold change": -0.0535}
{"sequence": "RRIRQRPPRLPRPRPRPQHNPRP", "shrunken log2 fold change": -0.786}
{"sequence": "RRIRHRPPRLPRPRPRPLDTPRP", "shrunken log2 fold change": 0.0608}
{"sequence": "RRIRHRPPRLPRPRPRPFSIPRP", "shrunken log2 fold change": -0.392}
{"sequence": "RRIRYRPPRLPRPRPRPYFEPRP", "shrunken log2 fold change": -0.58}
{"sequence": "RRIRMRPPRLPRPRPRPAMCPRP", "shrunken log2 fold change": 0.124}
{"sequence": "RRIRIRPPRLPRPRPRPAQNPRP", "shrunken log2 fold change": -0.0711}
{"sequence": "RRIRQRPPRLPRPRPRPWRGPRP", "shrunken log2 fold change": -0.0544}
{"sequence": "RRIRKRPPRLPRPRPRPTWCPRP", "shrunken log2 fold change": 0.263}
{"sequence": "RRIRWRPPRLPRPRPRPFFCPRP", "shrunken log2 fold change": 0.104}
{"sequence": "RRIRYRPPRLPRPRPRPWRAPRP", "shrunken log2 fold change": -0.142}
{"sequence": "RRIRLRPPRLPRPRPRPNYQPRP", "shrunken log2 fold change": -0.773}
{"sequence": "RRIRVRPPRLPRPRPRPTCYPRP", "shrunken log2 fold change": -0.118}
{"sequence": "RRIRVRPPRLPRPRPRPMQDPRP", "shrunken log2 fold change": 0.0217}
{"sequence": "RRIRIRPPRLPRPRPRPIQCPRP", "shrunken log2 fold change": 0.0629}
{"sequence": "RRIRYRPPRLPRPRPRPPVKPRP", "shrunken log2 fold change": -0.102}
{"sequence": "RRIRWRPPRLPRPRPRPEHFPRP", "shrunken log2 fold change": 0.00426}
{"sequence": "RRIRQRPPRLPRPRPRPMCPPRP", "shrunken log2 fold change": 0.00821}
{"sequence": "RRIRFRPPRLPRPRPRPYGIPRP", "shrunken log2 fold change": -0.00674}
{"sequence": "RRIRSRPPRLPRPRPRPNLMPRP", "shrunken log2 fold change": -0.177}
{"sequence": "RRIRRRPPRLPRPRPRPYTKPRP", "shrunken log2 fold change": -0.284}
{"sequence": "RRIRGRPPRLPRPRPRPDWNPRP", "shrunken log2 fold change": 0.361}
{"sequence": "RRIRFRPPRLPRPRPRPLWWPRP", "shrunken log2 fold change": 0.172}
{"sequence": "RRIRPRPPRLPRPRPRPFSSPRP", "shrunken log2 fold change": -0.322}
{"sequence": "RRIRERPPRLPRPRPRPKAFPRP", "shrunken log2 fold change": 0.0124}
{"sequence": "RRIRRRPPRLPRPRPRPFMPPRP", "shrunken log2 fold change": -0.00307}
{"sequence": "RRIRERPPRLPRPRPRPDADPRP", "shrunken log2 fold change": 0.0155}
{"sequence": "RRIRKRPPRLPRPRPRPVRPPRP", "shrunken log2 fold change": 1.28}
{"sequence": "RRIRQRPPRLPRPRPRPIMPPRP", "shrunken log2 fold change": -0.361}
{"sequence": "RRIRCRPPRLPRPRPRPSAPPRP", "shrunken log2 fold change": 0.0889}
{"sequence": "RRIRFRPPRLPRPRPRPCIHPRP", "shrunken log2 fold change": -0.0499}
{"sequence": "RRIRRRPPRLPRPRPRPWLSPRP", "shrunken log2 fold change": 0.0437}
{"sequence": "RRIRDRPPRLPRPRPRPVPNPRP", "shrunken log2 fold change": -0.0123}
